This is an account of results in patent publication US12344637B2, “Virus-inspired compositions and methods of redirecting preexisting immune responses using the same for treatment of cancer” (priority 2020, dated 2025).

For data set [1] the following is noted: HPV16 L1 deletion mutants; cited from earlier work.
In data set [2] the test system is MC38 cells. Kind of data set: OVA peptide loading in the presence of furin inhibitor. The conditions noted are these: IRC 2.5 μg/mL. Type of data set: cell-based, murine. As to the method: (Millipore-Sigma, St. Louis, MO). This furin inhibitor binds irreversibly to the catalytic site of furin, blocking all furin protease activity.
Briefly, 2×10^5 MC38 cells (murine colon adenocarcinoma, #ENH204-FP, Kerafast, Inc., Boston MA) were seeded in a FACs tube and then incubated with either 0.5 μM, […], or 50 μM furin inhibitor dissolved in DMSO at total final sample volume of 200 μL. Control samples containing no inhibitor were prepared the same way with the same volume equivalent of DMSO. The samples were incubated for fifteen minutes in a tissue culture incubator at 37° C., 5% CO2. Then, 2.5 μg/mL of OVA-conjugated MPV.10.34.d IRC was added to all samples and the samples were incubated in a tissue culture incubator at 37° C., 5% CO2. Samples were then washed twice with 2 to 3 mL FACS buffer and then stained with PE-conjugated-mouse anti-mouse MHC I bounded with OVA (SIINFEKL, SEQ ID NO:95) monoclonal antibody (Biolegend, Cat #141604, San Diego, CA) for 30 minutes at 4° C. Following this, samples were washed once with 3 mL FACS buffer then the cells were resuspended in 250 μL of FACS buffer before being analyzed by a CytoFLEX flow cytometer. (Beckman Coulter Life Sciences, Brea, CA, US).

Data set [3] in a line: Transmission electron microscopy (TEM) size and structure. The conditions noted are these: purified refolded capsid backbone. It counts as physicochemical. As to the method: TEM analysis was also employed to obtain further visual confirmation of the structure and size of the refolded proteins. Samples (10 μL) were adsorbed to glow discharged (EMS GloQube) carbon coated 400 mesh copper grids (EMS), by floatation for 2 min. Grids were quickly blotted and then rinsed in 3 drops (1 min each) of TBS. Grids were negatively stained in 2 consecutive drops of 1% uranyl acetate with tylose (1% UAT, double filtered, 0.22 μm filter), blotted then quickly aspirated to obtain a thin layer of stain covering the sample. Grids were imaged on a Phillips CM-120 TEM operating at 80 kV with an AMT XR80 CCD (8 megapixel).

Data set [4] relates to MPV.A4 monoclonal antibody. Kind of data set: ELISA with MPV.A4 conformational monoclonal antibody. Type of data set: binding. Here is the method: The MPV.A4 antibody is a conformational antibody that specifically binds to MPV L1 in the form of T=1 or T=7 capsid backbone structure. This antibody will not bind to denatured or monomeric MPV L1. (Hafenstein et al., 2020, “Atomic Resolution CRYOEM structure of Mouse Papillomavirus,” International Papillomavirus Conference, Jul. 20-24, 2020). To determine whether MPV.10.34.d undergoing the steps in Example 1 or Example 4 yields a T=1 capsid backbone, ELISA was performed on these samples with the MPV.A4 monoclonal antibody.
Samples from Example 1 and Example 4 of equal concentrations (starting concentration of 1000 ng/well) were subjected to ELISA. To ensure that both soluble and refolded MPV.10.34.d were equally bound to the ELISA plate (Nunc Maxisorp, ThermoFisher Scientific, Waltham, MA, US), both samples were first buffer exchanged into either 50 mM NaPO4, 450 mM NaCl at pH 6 or pH 7. […] Based on this, a total of four sample conditions were two-fold serially diluted and subjected to ELISA with the MPV.A4 monoclonal antibody.
Briefly, eight different amounts of protein (7.8 ng to 1 μg) for each sample under both pH conditions (into either 50 mM NaPO4, 450 mM NaCl at pH 6 or pH 7) were first added to the ELISA plate and the plate was stored at 4° C. […] The absorbance of the sample plates were read at 450 nm and 620 nm with a plate reader (BioTek, Winooski, VT, US).
For orientation: In an ELISA, binding on a coated surface is turned into a signal by an enzyme label.

In data set [5] the test system is MC38 cells. The experiment in a line: In vitro cell binding assay (flow cytometry), MC38. It counts as cell-based, murine. The conditions noted are these: MC38, 1 h 37° C. As to the method: (§1) To assess whether IRC bind to tumor cells, an in vitro cell binding assay was conducted. Specifically, both MPV.10.34.d capsid backbones (unconjugated) as well as different conjugated IRC (human CMV pp65, murine E7, and murine OVA peptide) were examined.
(§2) Briefly, 2×10^5 MC38 cells (murine colon adenocarcinoma, #ENH204-FP Kerafast, Inc., Boston MA) or pgsA-745 cells (Chinese hamster ovary cell mutant deficient in xylosyltransferase (UDP-D-xylose:serine-1,3-D-xylosyltransferase, ATCC CRL-2242) in which heparin sulfate proteoglycan (HSPG) expression is knocked out, were seeded overnight. The next day, the cells were treated with human CMV pp65, murine HPV16 E7, and murine OVA peptide, as well as the MPV.10.34.d capsid backbone for one hour at 37° C. Cells were then washed twice with 2 to 3 mL of a fluorescence activated cell sorting (FACS) buffer (1% bovine serum albumin in PBS) and then stained with 1 mL of rabbit anti-musPsV serum antibodies for 30 minutes at 4° C. Following this, samples were washed once with 3 mL FACS buffer and stained with 0.5 mL of donkey anti-rabbit IgG-PE antibody (Biolegend, San Diego, CA) for 30 min at 4° C. in the dark. Finally, samples were washed once more with 3 mL FACS buffer and then resuspended in […] of FACS buffer before being analyzed by a CytoFLEX flow cytometer (Beckman Coulter Life Sciences, Brea, CA, US).
On the technique in general: Flow cytometry measures light scatter and fluorescence of single cells or particles in a stream.

Another data set relates to pgsA-745 cells. The experiment in a line: In vitro cell binding assay (flow cytometry), HSPG knock-out cells. Type of data set: cell-based, Chinese hamster. The conditions noted are these: pgsA-745, 1 h 37° C. Here is the method:
as §1, §2

The test system of another data set is HCT116. Kind of data set: In vitro cytotoxicity assay with human CMV T cells, HCT116. It counts as cell-based. The note with it: HCT116, 2.5 μg/mL, E:T 10:1, 24 hrs. Here is the method: (§3) In these experiments, CD8+ T cell responses to CMV peptides were tested in three different human tumor cell lines, including HCT116, OVCAR3, and MCF7. All three of these human tumor cell lines are HLA-A*0201 positive.
(§4) In Vitro Cytotoxicity Assays. […], human colon cancer cells, MCF7, human breast cancer cells, and OVCAR3, human ovarian cancer cells (all from ATCC, Manassas, VA, US) were seeded overnight at 0.01 to 0.2×10^6 per well per 100 μL per 96 well plate. The next day (about 20 to 22 hrs later), each cell line was incubated for one hour at 37° C. under the following conditions: (1) CMV peptide at a final concentration of 1 μg/mL (positive control), (2) MPV.10.34.d at a final concentration of 2.5 μg/mL (negative control), (3) CMV-conjugated MPV.10.34.d IRC at a final concentration of 2.5 μg/mL, (4) CMV-conjugated HPV16 IRC at a final concentration of 2.5 μg/mL, and (5) no antigen (negative control). After 1 hour, the cells were washed vigorously with 200 μL of media for three times to remove non-specific binding. […] Cell viability was measured after co-culturing. Cell viability was measured with CELLTITER-GLO® (Promega, Madison, WI, US). […] The amount of ATP generated from tumor cells was quantified according to manufacturer protocols.

For another data set, the system named is OVCAR3. The experiment in a line: In vitro cytotoxicity assay with human CMV T cells, OVCAR3. The note with it: OVCAR3, 2.5 μg/mL, E:T 10:1, 24 hrs. It counts as cell-based. As to the method:
as §3, §4

A further data set relates to MCF7. Kind of data set: In vitro cytotoxicity assay with human CMV T cells, MCF7. Type of data set: cell-based. The note with it: MCF7, 2.5 μg/mL, E:T 10:1, 24 hrs. As to the method:
as §3, §4

Data set [6] in a line: ELISA of anti-MPV.10.34.d IRC sera. It counts as binding, mice. The conditions noted are these: serum from 1:100, two-fold dilutions. Here is the method: (§5) Antibodies against wild type MPV were generated as follows: New Zealand white rabbits (n=3) were administered three intra-muscular vaccinations of 50 μg of wild type mouse papillomavirus particles per dose. Rabbits were vaccinated at months 0, 1, and 2. After two weeks post final vaccination, rabbits were bled to obtain the anti-MPV sera. Antibodies against MPV.10.34.d IRC were obtained as follows: naïve 6 to 8 week old C57/BL6 mice (n=10) were injected systemically with two doses of 150 μg of E7-conjugated MPV.10.34.d over a period of 48 hours. After 48 hours, the mice were bled to obtain the anti-MPV.10.34.d IRC sera.
(§6) Specificity of anti-MPV.10.34.d IRC sera and anti-MPV sera to both MPV.10.34.d capsid backbone and MPV.10.34.d IRC was examined by ELISA. The assays were performed as described in Example 5 with the following differences: serum samples were tested at a 1:100 dilution factor and two-fold serial dilutions. Goat anti-mouse IgG-HRP secondary antibody was used in the ELISA (1:7000). Binding of anti-MPV.10.34.d IRC sera (FIG. 31) and anti-MPV scrum (data not shown) to both MPV.10.34.d capsid backbone (FIG. 31A) and MPV.10.34.d IRC (FIG. 31B) was observed.

Another data set in a line: ELISA of anti-MPV sera. It counts as binding, rabbits. The conditions noted are these: data not shown. Here is the method: as §5, §6

For the molecule “ΔN = 0: HPV16 L1 protein without N-terminal deletion (Chen et al., 2000)”, the “Apparent Diameter of Assembled Particle (Å)” value in data set [1] is 600 Å.
Turning to “decanoyl-RVKR-CMKa [furin inhibitor, reference compound]”, the OVA peptide loading entry in the data set on MC38 cells [2] (furin inhibitor 0.5 μM), in the data set with MC38 cells [2] (furin inhibitor 5 μM) and in the data set on MC38 cells [2] (furin inhibitor 50 μM) was “prevents OVA-conjugated MPV.10.34.d IRCs from loading OVA epitopes” in each case.

B1: MPV.10.34.d capsid backbone (protein)
chain: MLYLPPTTPVAKVQSTDEYVYPTSLFCHAHTDRLLTVGHPFFSVIDNDKVTVPKVSGNQYRVFRLKFPDPNKFALPQKDFYDPEKERLVWRLRGLEIGRGGPLGIGTTGHPLFNKLGDTENPNKYQQGSKDNRQNTSMDPKQTQLFIVGCEPPTGEHWDVAKPCGALEKGDCPPIQLVNSVIEDGDMCDIGFGNMNFKELQQDRSGVPLDIVSTRCKWPDFLKMTNEAYGDKMFFFGRREQVYARHFFTRNGSVGEPIPNSVSPSDFYYAPDSTQDQKTLAPSVYFGTPSGSLVSSDGQLFNRPFWLQRAQGNNNGVCWHNELFVTVVDNTRNTNFTISQQTNTPNPDTYDSTNFKNYLRHVEQFELSLIAQLCKVPLDPGVLAHINTMNPTILENWNLGFVPPKEREDPYKGLIFWEVDLTERFSQDLDQFALGRKFLYQ
Consider B1, for which the “diameter (TEM)” value in data set [3] is recorded as approximately 30 nm. The “recognition by MPV.A4 conformational monoclonal antibody” value in data set [4] (refolded from IBs (Example 1)) is “recognized”; in [4] (soluble (Example 4), pH 6 or pH 7), “recognized”. The “binding to tumor cells (peak shift)” value in the data set with MC38 cells [5] was “exhibited specificity for tumor cells”. Further, in the data set on pgsA-745 cells, the “binding to cells lacking HSPG expression” value is given as “no binding”. The “redirection of CMV pp65-specific CD8+ T-cells to kill tumor cells” value in the data set on HCT116, with OVCAR3 and in the data set on MCF7 was “no background tumor killing” throughout. The “binding of anti-MPV.10.34.d IRC sera (ELISA)” value is “Binding” in data set [6]; “specifically recognize and bind” in data set [6] (listed as MPV.10.34.d capsid backbones). Also, the “binding of anti-MPV serum (ELISA)” value in “ELISA of anti-MPV sera” was “Binding”.
